Values quoted from earlier work in publication PMC5242463.

Molecular target: Trigger Factor (Escherichia coli) (UniProt P0A850)
Sequence (P0A850 whole entry): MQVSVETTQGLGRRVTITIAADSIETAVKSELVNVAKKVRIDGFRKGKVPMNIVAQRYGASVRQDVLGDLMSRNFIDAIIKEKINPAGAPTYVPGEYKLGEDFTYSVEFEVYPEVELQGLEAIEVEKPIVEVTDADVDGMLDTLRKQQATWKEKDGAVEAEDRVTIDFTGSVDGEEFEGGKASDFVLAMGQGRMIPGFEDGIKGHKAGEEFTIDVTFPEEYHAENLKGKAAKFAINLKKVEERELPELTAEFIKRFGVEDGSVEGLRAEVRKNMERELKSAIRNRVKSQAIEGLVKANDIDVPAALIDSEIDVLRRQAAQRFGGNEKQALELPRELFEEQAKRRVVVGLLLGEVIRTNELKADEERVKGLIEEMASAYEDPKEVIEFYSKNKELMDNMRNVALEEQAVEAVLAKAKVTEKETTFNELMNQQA

Chain of Nascent Lep (P00803 whole entry): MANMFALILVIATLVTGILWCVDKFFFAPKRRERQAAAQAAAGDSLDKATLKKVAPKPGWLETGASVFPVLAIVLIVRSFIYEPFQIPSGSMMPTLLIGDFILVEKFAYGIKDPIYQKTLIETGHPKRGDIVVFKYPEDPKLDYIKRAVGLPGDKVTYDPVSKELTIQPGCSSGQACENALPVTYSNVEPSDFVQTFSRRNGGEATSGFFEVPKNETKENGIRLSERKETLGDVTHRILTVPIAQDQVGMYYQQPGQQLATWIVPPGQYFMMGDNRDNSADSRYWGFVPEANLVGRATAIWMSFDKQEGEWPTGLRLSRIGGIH

Substance: Nascent Lep (from UniProt P00803)
- Kd: 311 nM
